Test results from US9217013B2, “Treatment of amyloidoses using myelin basic protein and fragments thereof” (The Research Foundation for the State University of New York, priority 2008, dated 2015).
“Also recorded” adds a separate entry of the source.

Columns and labels:
Aβ40DI [1] = target: T1, Aβ40DI (Homo sapiens, UniProt P05067, D694N/E693Q); test: Thioflavin T fluorescence assay of Aβ40DI fibril formation; assay type: biochemical; settings: 12.5 μM Aβ40DI, 1.56 μM protein, PBS, 37° C.
Procedure: FIG. 16 Thioflavin T analysis of inhibition of CAA mutant Aβ fibril formation by MBP. Aβ40DI at a concentration of 12.5 μM in PBS in the absence (□) or presence of 1.56 μM MBP(□) or bovine a-lactalbumin (Lalb; □) as a control. At specific time points, aliquots were collected from each sample and analyzed by thioflavin T binding and fluorescence to determine fibrillar assembly. Data represent the means±S.D. of triplicate samples. A.U., arbitrary units.
The Aβ B binding properties of the exemplary fragments of MBP described herein were determined in a thioflavin T fluorescence assay as follows: Lyophilized Aβ peptides were first resuspended with Me2SO to 2.5 mM, diluted to 12.5 μM in PBS, and then incubated at 37° C. with rocking either alone or with 1.56 μM MBP or bovine α-lactalbumin. Control samples containing 0.5% Me2SO and 1.56 μM MBP or lactalbumin in PBS were also included. At each time point, 100 μl samples of each reaction were placed in a 96-well microplate in triplicate, and 5 μl of 100 µM thioflavin T was added. The plate was mixed and incubated at 22° C. in the dark for 10 min. Fluorescence was measured at 490 nm with an excitation wavelength of 446 nm in a SpectraMax spectrofluorometer (Molecular Devices, Sunnyvale, Calif.) using SoftMax Pro control software. It is apparent that the method enables persons of skill in the art to determine the binding properties of MBP, variants thereof, and fragments thereof for any Aβ-peptide, including mutants thereof.

Aβ40DI [2] = target: T1, Aβ40DI; test: Co-immunoprecipitation of MBP with Aβ40DI; assay type: binding; settings: purified MBP
Procedure: AP peptides were resuspended in Me2SO to 2.5 mM and used at 10.8 μM. MBP was used at 1.56 μM. Proteins were combined in 250 μl of incubation buffer (PBS, 0.05% Tween 20, and 1% BSA). Anti-MBP mAb 382 was added to each sample mixture and incubated for 1 h at 4° C. with rocking. After incubation, 20 μl of washed GammaBind protein G-Sepharose beads (Amersham Biosciences) were added to each mixture, followed by incubation for an additional 1 h at 4° C. with rocking. Beads were separated by centrifugation at 8000×g for 2 min. Supernatants were removed, and beads were washed with 1 ml of incubation buffer. Separation and washing were repeated three times. A final wash was performed in PBS and 0.05% Tween 20 to remove excess BSA. Centrifuged beads were combined with 25 μl of reducing SDS-PAGE loading buffer and heated as described above. 10 μl of each sample/loading buffer mixture was loaded onto 10-20% Tricine gels (Invitrogen) and electrophoresed at 125 V for 35 min. Immunoblotting was carried out as described above using either biotinylated anti-MBP mAb 384 or biotinylated anti-Aβ mAb 3D6 as primary antibody. Experiments were performed in triplicate.

Aβ40DI [3] = target: T1, Aβ40DI; test: Affinity chromatography of human brain homogenate on Aβ40DI column; assay type: binding
Procedure: For some embodiments of the invention, it may be advantageous to work with purified isolates of mutant and wild-type forms of Aβ. The affinity chromatography method used in the development of embodiments of the instant invention to obtain such isolates is exemplary: To prepare affinity resins, biotinylated wild-type Aβ40 peptide (Aβ40WT) and Aβ40DI were each redissolved in 20 mM NaHCO3 buffer (pH 8.5) and applied to ImmunoPure immobilized streptavidin beads (Pierce) following the manufacturer's instructions. Immobilized ligands were cross-linked with 2 mM bis(sulfosuccinimidyl) suberate (Pierce) for 30 min with rocking at room temperature in 20 mM NaHCO3 (pH 8.5). Crosslinking reactions were stopped by the addition of 1 M Tris-HCl (pH 7.4) to a final concentration of 20 mM. Homogenates of normal human brain frontal cortex (which may obtained as biopsies) were prepared in Tris-buffered saline (50 mM Tris-HCl and 200 mM NaCl (pH 7.4)) containing complete protease inhibitor cocktail (Roche). Homogenates were centrifuged at 12,000×g for 30 min, and supernatants were loaded onto Tris-buffered saline-equilibrated affinity columns (0.8×4 cm) under gravity flow. […] Fractions were analyzed by SDS-PAGE on 10-20% Tris/glycine gradient gels. […]

B1: myelin basic protein (protein)
chain: ASQKRPSQRHGSKYLATASTMDHARHGFLPRHRDTGILDSIGRFFGGDRGAPKRGSGKDSHHPARTAHYGSLPQKSHGRTQDENPVVHFFKNIVTPRTPPPSQGKGRGLSLSRFSWGAEGQRPGFGYGGRASDYKSAHKGFKGVDAQGTLSKIFKLGGRDSRSGSPMARR
notes: myelin basic protein, major form about 18.5 Kd (170 residues); purified protein
For B1, the “inhibition of Aβ40DI fibril assembly (thioflavin T)” value (Aβ40DI [1]) was “completely inhibits; also recorded: inhibit”, the “preference for Aβ40DI over Aβ40WT by immunoprecipitation” value (Aβ40DI [2]) was “showed no preference” and the “capture on Aβ40DI affinity column” value (Aβ40DI [3]) was “captured; also recorded: preferentially binds”.
